Where two headings read alike, the source gives them in different places.
What was measured:
[1] = molecular target: DC-SIGN ECD immobilised on a streptactin-functionalised SPR surface (human) (UniProt Q9NNX6)
[2] = molecular target: DC-SIGN ECD immobilised on a streptactin-functionalised SPR surface (human) (UniProt Q9NNX6); remark: listed apart in the source

DC-SIGN ECD immobilised on a streptactin-functionalised SPR surface (human), sequence (Q9NNX6 59-404): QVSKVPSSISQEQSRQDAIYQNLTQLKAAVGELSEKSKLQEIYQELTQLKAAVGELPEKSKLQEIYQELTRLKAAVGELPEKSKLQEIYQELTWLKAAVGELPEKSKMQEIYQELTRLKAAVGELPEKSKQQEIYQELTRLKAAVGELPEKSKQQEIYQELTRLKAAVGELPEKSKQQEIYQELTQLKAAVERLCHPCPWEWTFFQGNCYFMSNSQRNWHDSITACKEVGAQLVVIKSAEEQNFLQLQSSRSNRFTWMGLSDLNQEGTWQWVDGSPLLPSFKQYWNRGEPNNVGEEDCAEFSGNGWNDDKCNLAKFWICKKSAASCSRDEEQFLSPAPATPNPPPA
HCMV gB treated with a(1-2,3,6)-mannosidase, sequence (P13201 25-907 limits assumed): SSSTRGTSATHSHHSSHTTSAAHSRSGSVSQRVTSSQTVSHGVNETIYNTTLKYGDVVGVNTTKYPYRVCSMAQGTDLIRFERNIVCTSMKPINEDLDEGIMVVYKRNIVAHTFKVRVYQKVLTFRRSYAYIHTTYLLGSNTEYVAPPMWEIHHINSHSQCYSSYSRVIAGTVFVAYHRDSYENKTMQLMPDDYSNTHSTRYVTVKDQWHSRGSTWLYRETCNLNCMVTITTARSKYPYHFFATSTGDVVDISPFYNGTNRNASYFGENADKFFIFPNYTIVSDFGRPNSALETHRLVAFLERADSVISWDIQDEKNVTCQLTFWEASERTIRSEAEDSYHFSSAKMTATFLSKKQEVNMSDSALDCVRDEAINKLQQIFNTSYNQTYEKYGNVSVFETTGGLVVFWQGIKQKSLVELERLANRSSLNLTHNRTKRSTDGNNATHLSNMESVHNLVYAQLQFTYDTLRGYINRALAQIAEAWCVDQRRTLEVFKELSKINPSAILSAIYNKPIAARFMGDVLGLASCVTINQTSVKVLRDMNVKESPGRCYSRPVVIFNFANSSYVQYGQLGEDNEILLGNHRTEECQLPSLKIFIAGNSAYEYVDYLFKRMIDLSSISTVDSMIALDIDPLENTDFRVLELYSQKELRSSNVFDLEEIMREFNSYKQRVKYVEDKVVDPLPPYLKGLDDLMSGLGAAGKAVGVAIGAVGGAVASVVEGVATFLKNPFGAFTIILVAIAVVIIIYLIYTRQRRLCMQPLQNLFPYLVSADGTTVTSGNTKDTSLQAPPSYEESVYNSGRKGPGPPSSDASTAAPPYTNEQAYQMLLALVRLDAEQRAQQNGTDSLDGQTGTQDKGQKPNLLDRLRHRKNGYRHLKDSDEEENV
CHO-derived recombinant CMV glycoprotein B (soluble recombinant HCMV gB), untreated, sequence (P13201 25-907 limits assumed): as above

Substance | Kd [1] [nM] | Kd [2] [nM]
HCMV gB treated with a(1-2,3,6)-mannosidase (from UniProt P13201 25-907) (ligand) | 0.149 | 
CHO-derived recombinant CMV glycoprotein B (soluble recombinant HCMV gB), untreated (from UniProt P13201 25-907) (ligand) |  | 0.014

— patent publication WO2018134389A1
